In assay [1] the target is T1, wild-type human PTH/PTHrP receptor (hP1R-WT) (human, UniProt Q03431 27-593).
T1 sequence (looked up): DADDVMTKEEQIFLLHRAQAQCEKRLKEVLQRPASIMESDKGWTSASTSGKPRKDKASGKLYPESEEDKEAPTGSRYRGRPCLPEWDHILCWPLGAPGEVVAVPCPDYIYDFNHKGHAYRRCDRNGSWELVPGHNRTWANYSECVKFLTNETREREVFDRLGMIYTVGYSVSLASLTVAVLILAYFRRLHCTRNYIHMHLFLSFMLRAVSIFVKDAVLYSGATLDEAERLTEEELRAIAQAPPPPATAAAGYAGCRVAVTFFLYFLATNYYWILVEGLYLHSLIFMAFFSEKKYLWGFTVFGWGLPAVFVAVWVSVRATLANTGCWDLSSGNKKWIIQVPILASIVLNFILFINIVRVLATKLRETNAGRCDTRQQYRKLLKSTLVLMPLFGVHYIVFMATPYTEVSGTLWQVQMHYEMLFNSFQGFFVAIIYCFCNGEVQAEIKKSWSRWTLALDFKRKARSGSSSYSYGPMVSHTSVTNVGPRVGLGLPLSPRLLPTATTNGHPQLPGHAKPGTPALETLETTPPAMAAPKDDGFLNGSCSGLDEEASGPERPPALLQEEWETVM
Briefly: cell-based or functional assay.

Assay [2] has as its target T1, wild-type human PTH/PTHrP receptor …. Briefly: competition binding, 125I-[M]PTH(1-21) tracer, HKRK-B28 cells. As to the method:
(§1) Cells were then placed on ice, the binding medium was removed, and the monolayer was rinsed three times with 0.5 mL of cold binding buffer. The cells were subsequently lysed with 0.5 mL […] NaOH and counted for radioactivity. For each tracer and in each experiment, the non-specific binding was determined as the radioactivity that bound in the presence of the same unlabeled peptide at a concentration of 1 μM, and was ˜1% of total radioactivity added for each tracer. The maximum specific binding (B₀) was the total radioactivity bound in the absence of competing ligand, corrected for nonspecific binding, and for each tracer, ranged from 8% to 20% of the total radioactivity added. Nonlinear regression was used to calculate binding IC₅₀ values (see below). Scatchard transformations of homologous competition binding data derived from studies with 26 fmol of ¹²⁵I-[Aib^{1,3},M]PTH(1-21) were employed for estimations of apparent equilibrium dissociation constant (kDapps) and total number of ligand binding sites (Bₘₐₓ), assuming a single class of binding sites and equal affinities of the iodinated and non iodinated ligand.
Relative to the apparent binding affinity of [M]PTH(1-14), most of the Aib substitutions reduced affinity, in accordance with the corresponding effects on cAMP-signaling potency (Table 1).

Assay [3] has the same target. Briefly: competition binding, 125I-[M]PTH(1-21) tracer, HKRK-B28 cells, 4 h at 4 C. As to the method: as §1, with “Competition Binding. Binding reactions were performed with HKRK-B28 cells or in COS-7 cells in 24-well plates. The cells were rinsed with 0.5 mL of binding buffer, and then treated successively with 100 μL binding buffer, 100 μL of binding buffer containing various amounts of unlabeled competitor ligand, and 100 μL of binding buffer containing ca. 100,000 cpm of ¹²⁵I-[M]PTH(1-21) or ¹²⁵I-[Aib^{1,3},M]PTH(1-21)} (ca. 26 fmol; final volume=300 μL). Incubations were 4 to 6 h at 4° C., at which time near equilibrium conditions were attained. Cells” for “Cells”
Peptides PTH(1-34) ([Nle^{8,21}, Tyr³⁴]PTH(1-34)amide), [M]PTH(1-14) (M = Ala^{3,12}, Gln¹⁰, Har¹¹, Trp¹⁴), and [M]PTH(1-14 analogs, or C-terminally truncated derivatives thereof, containing α-aminoisobutyric acid (Aib) substitutions at the indicated positions were functionally evaluated in HKRK-B28 cells. “M” in [Aib^{1,3}, M]PTH(1-21) = Nle⁸, Gln¹⁰, Har¹¹, Ala¹², Trp¹⁴, Arg¹⁹ and Tyr²¹. The basal cAMP values (not subtracted) were 4.0 ± 0.1 pmole/well (n = 10). Peptides were based on the rat PTH sequence and were carboxy-amidated. Competition binding analyses were performed with ¹²⁵I-[M]PTH(1-21 )amide (Ala^{1,3}) as tracer for 4 h at 4° C. Data are means (±S.E.M.) Of the number of experiments indiated (n).

The source of these data is patent US20050026839A1 (GENERAL HOSPITAL, published 2005).

Square brackets hold non-standard residues; d marks the D form. Ends that are not written are not given here. hArg = N=C(N)NCCCC[C@H](N)C(=O)O; Nle = CCCC[C@H](N)C(=O)O; Aib = CC(C)(N)C(=O)O

For orientation: IC50 means the point on the concentration scale where inhibition reaches its midpoint.

B1: [Aib^6,M]PTH(1-14) (peptide)
peptide: AVAEI[Aib]LMHQ[hArg]AKW-NH2
modifications: N-terminus assumed
SMILES: CC[C@H](C)[C@H](NC(=O)[C@H](CCC(=O)O)NC(=O)[C@H](C)NC(=O)[C@@H](NC(=O)[C@H](C)N)C(C)C)C(=O)NC(C)(C)C(=O)N[C@@H](CC(C)C)C(=O)N[C@@H](CCSC)C(=O)N[C@@H](Cc1c[nH]cn1)C(=O)N[C@@H](CCC(N)=O)C(=O)N[C@@H](CCCCNC(=N)N)C(=O)N[C@@H](C)C(=O)N[C@@H](CCCCN)C(=O)N[C@@H](Cc1c[nH]c2ccccc12)C(N)=O
notes: Aib scan of [M]PTH(1-14); also called 627 Aib-6
For the molecule B1, in assay [1], the “cAMP EC50” value was found to be 230 µM and the “cAMP EMax(obs.)” value worked out at 116 pmole/well. For the same molecule, the “fold reduction in affinity relative to [M]PTH(1-14)” value in assay [2] is about 3 fold. In assay [3], the IC50 worked out at 31 µM.

B2: [Aib^4,M]PTH(1-14) (peptide)
peptide: AVA[Aib]IQLMHQ[hArg]AKW-NH2
modifications: N-terminus assumed
SMILES: CC[C@H](C)[C@H](NC(=O)C(C)(C)NC(=O)[C@H](C)NC(=O)[C@@H](NC(=O)[C@H](C)N)C(C)C)C(=O)N[C@@H](CCC(N)=O)C(=O)N[C@@H](CC(C)C)C(=O)N[C@@H](CCSC)C(=O)N[C@@H](Cc1c[nH]cn1)C(=O)N[C@@H](CCC(N)=O)C(=O)N[C@@H](CCCCNC(=N)N)C(=O)N[C@@H](C)C(=O)N[C@@H](CCCCN)C(=O)N[C@@H](Cc1c[nH]c2ccccc12)C(N)=O
notes: Aib scan of [M]PTH(1-14); also called 625 Aib-4
On to B2, for which, in assay [1], the “cAMP EC50” value is 17 µM and the “cAMP EMax(obs.)” value amounted to 221 pmole/well. In addition, in assay [2], the “fold reduction in affinity relative to [M]PTH(1-14)” value was over 10 fold. In assay [3], this molecule showed an IC50 of 148 µM.

B3: [Aib^8,M]PTH(1-14) (peptide)
peptide: AVAEIQL[Aib]HQ[hArg]AKW-NH2
modifications: N-terminus assumed
SMILES: CC[C@H](C)[C@H](NC(=O)[C@H](CCC(=O)O)NC(=O)[C@H](C)NC(=O)[C@@H](NC(=O)[C@H](C)N)C(C)C)C(=O)N[C@@H](CCC(N)=O)C(=O)N[C@@H](CC(C)C)C(=O)NC(C)(C)C(=O)N[C@@H](Cc1c[nH]cn1)C(=O)N[C@@H](CCC(N)=O)C(=O)N[C@@H](CCCCNC(=N)N)C(=O)N[C@@H](C)C(=O)N[C@@H](CCCCN)C(=O)N[C@@H](Cc1c[nH]c2ccccc12)C(N)=O
notes: Aib scan of [M]PTH(1-14); also called 629 Aib-8
Consider B3, for which, in assay [1], the “cAMP EC50” value is 1500 µM and the “cAMP EMax(obs.)” value amounted to 34 pmole/well. Further, the “fold reduction in affinity relative to [M]PTH(1-14)” value in assay [2] is over 10 fold.

B4: [Aib^1,3]PTH(1-9) (peptide)
peptide: [Aib]V[Aib]EIQLMH-NH2
modifications: N-terminus assumed
SMILES: CC[C@H](C)[C@H](NC(=O)[C@H](CCC(=O)O)NC(=O)C(C)(C)NC(=O)[C@@H](NC(=O)C(C)(C)N)C(C)C)C(=O)N[C@@H](CCC(N)=O)C(=O)N[C@@H](CC(C)C)C(=O)N[C@@H](CCSC)C(=O)N[C@@H](Cc1c[nH]cn1)C(N)=O
Take B4: in assay [1], the “cAMP EC50” value was over 10 µM and the “cAMP EMax(obs.)” value came to 10 pmole/well.

B5: [Aib^2,M]PTH(1-14) (peptide)
peptide: A[Aib]AEIQLMHQ[hArg]AKW-NH2
modifications: N-terminus assumed
SMILES: CC[C@H](C)[C@H](NC(=O)[C@H](CCC(=O)O)NC(=O)[C@H](C)NC(=O)C(C)(C)NC(=O)[C@H](C)N)C(=O)N[C@@H](CCC(N)=O)C(=O)N[C@@H](CC(C)C)C(=O)N[C@@H](CCSC)C(=O)N[C@@H](Cc1c[nH]cn1)C(=O)N[C@@H](CCC(N)=O)C(=O)N[C@@H](CCCCNC(=N)N)C(=O)N[C@@H](C)C(=O)N[C@@H](CCCCN)C(=O)N[C@@H](Cc1c[nH]c2ccccc12)C(N)=O
notes: Aib scan of [M]PTH(1-14); also called 623 Aib-2
In the case of B5, in assay [1], the “cAMP EC50” value was 47 µM and the “cAMP EMax(obs.)” value worked out at 168 pmole/well. This molecule registered an IC50 in assay [3] of 50 µM.

B6: [Aib^7,M]PTH(1-14) (peptide)
peptide: AVAEIQ[Aib]MHQ[hArg]AKW-NH2
modifications: N-terminus assumed
SMILES: CC[C@H](C)[C@H](NC(=O)[C@H](CCC(=O)O)NC(=O)[C@H](C)NC(=O)[C@@H](NC(=O)[C@H](C)N)C(C)C)C(=O)N[C@@H](CCC(N)=O)C(=O)NC(C)(C)C(=O)N[C@@H](CCSC)C(=O)N[C@@H](Cc1c[nH]cn1)C(=O)N[C@@H](CCC(N)=O)C(=O)N[C@@H](CCCCNC(=N)N)C(=O)N[C@@H](C)C(=O)N[C@@H](CCCCN)C(=O)N[C@@H](Cc1c[nH]c2ccccc12)C(N)=O
notes: Aib scan of [M]PTH(1-14); also called 628 Aib-7
B6: in assay [1], the “cAMP EC50” value amounted to 2.6 µM and the “cAMP EMax(obs.)” value came to 275 pmole/well. Moreover, the “fold reduction in affinity relative to [M]PTH(1-14)” value in assay [2] was over 10 fold. Further, the IC50 in assay [3] is 490 µM.

B7: [Ala^3,12,Nle^8,Gln^10,Har^11,Trp^14,Arg^19,Tyr^21]PTH(1-21)amide (peptide)
peptide: AVAEIQL[Nle]HQ[hArg]AKWLASVRRY-NH2
modifications: N-terminus assumed
SMILES: CCCC[C@H](NC(=O)[C@H](CC(C)C)NC(=O)[C@H](CCC(N)=O)NC(=O)[C@@H](NC(=O)[C@H](CCC(=O)O)NC(=O)[C@H](C)NC(=O)[C@@H](NC(=O)[C@H](C)N)C(C)C)[C@@H](C)CC)C(=O)N[C@@H](Cc1c[nH]cn1)C(=O)N[C@@H](CCC(N)=O)C(=O)N[C@@H](CCCCNC(=N)N)C(=O)N[C@@H](C)C(=O)N[C@@H](CCCCN)C(=O)N[C@@H](Cc1c[nH]c2ccccc12)C(=O)N[C@@H](CC(C)C)C(=O)N[C@@H](C)C(=O)N[C@@H](CO)C(=O)N[C@H](C(=O)N[C@@H](CCCNC(=N)N)C(=O)N[C@@H](CCCNC(=N)N)C(=O)N[C@@H](Cc1ccc(O)cc1)C(N)=O)C(C)C
notes: unlabeled peptide; also called [M]PTH(1-21); 608 [M]PTH(1-21)
B7 had an IC50 in assay [3] of 0.053 µM.

B8: [Aib^9,M]PTH(1-14) (peptide)
peptide: AVAEIQLM[Aib]Q[hArg]AKW-NH2
modifications: N-terminus assumed
SMILES: CC[C@H](C)[C@H](NC(=O)[C@H](CCC(=O)O)NC(=O)[C@H](C)NC(=O)[C@@H](NC(=O)[C@H](C)N)C(C)C)C(=O)N[C@@H](CCC(N)=O)C(=O)N[C@@H](CC(C)C)C(=O)N[C@@H](CCSC)C(=O)NC(C)(C)C(=O)N[C@@H](CCC(N)=O)C(=O)N[C@@H](CCCCNC(=N)N)C(=O)N[C@@H](C)C(=O)N[C@@H](CCCCN)C(=O)N[C@@H](Cc1c[nH]c2ccccc12)C(N)=O
notes: Aib scan of [M]PTH(1-14); also called 630 Aib-9
Turning to B8, in assay [1], the “cAMP EC50” value is 710 µM and the “cAMP EMax(obs.)” value is 51 pmole/well. Moreover, in assay [2], the “fold reduction in affinity relative to [M]PTH(1-14)” value is over 10 fold.
